Results published in publication PMC8395497.

Columns and labels:
[1] = biological target: Halichondria panicea ferritin HpF1 (Halichondria panicea (endogenous in sponge body tissue)); assay: native gel or EMSA; sponge body tissue homogenates (20 mM EDTA, 50 mM Hepes-Na pH 7.2, 200 mM NaCl, 4 °C) on a native 3.5-10% polyacrylamide gradient gel in 50 mM Bis-Tris-glycine pH 8.0; Prussian blue staining and UV 360 nm absorbance; markers horse ferritin (440 kDa) and thyroglobulin (670 kDa); high molecular mass bands cut out and identified by MALDI/TOF mass spectrometry
[2] = biological target: Halisarca dujardini ferritin HdF1a/b (Halisarca dujardini (endogenous in sponge body tissue)); assay: as above

Substance	stoichiometry N [1] [subunits]	stoichiometry N [2] [subunits]
Halichondria panicea ferritin HpF1 (natural protein)	24	
Halisarca dujardini ferritin HdF1a/b (natural protein)		24
